In patent US20190367592A1 (AC IMMUNE, published 2019):
Where a chain is given by its changes, count along the chain named. In names and notes the source's numbering stands. Several values for one entry are separate records, joined by “and”; a condition that tells them apart may be missing. Equal entries are not always repeated.

B1: hu94B2 HC1 + LC9 (antibody, V domains shown)
VH: EVQLVQSGAEVKKPGASVKVSCKASGYSLTGYTMNWVRQAPGQGLEWIGLISPYNGVTSYNQKFKGRATLTVDKSTSTAYLELSSLRSEDTAVYYCARQGAYWGQGTLVTVSS
VL: DVVMTQTPLSLPVTPGQPASISCKSSQSLLDSDGKTYLNWLLQKPGQSPQRLIYLVSKLDSGVPDRFSGSGSGTDFTLKISRVEAEDVGVYYCWQGTHFPWTFGQGTKVEIK
B2: 15C6-A7 (antibody, V domains shown)
VH: EVQLQQSGPELVKPGASVMMTCKASGYTFTDYYMKWVKQSNGKSLEWIGDLDPYTGGANYNQKFKGKATLTVDKSSSTAYMHLNSLTSEDSAVYYCARSRGYGDSFAYWGQGTLVTVSA
VL: DVLMTQTPLSLPVSLGDQASISCRSSQNIVHSNGNTYLEWYLQKPGQSPKLLIYKVSNRFSGVPDKFSGSGSGTDFTLKISRVEAEDLGVYFCFQGSHVPPTFGGGTKLEIK
notes: hybridoma supernatant
B3: hu37D3-H9.v5 (antibody, V domains shown)
VH: EVQLVESGGGLVQPGGSLRLSCAASGLIFRSYGMSWVRQAPGKGLEWVATINSGGTYTYYPDSVKGRFTISRDNSKNTLYLQMNSLRAEDTAVYYCANSYSGAMDYWGQGTLVTVSS
VL: EDVLTQTPLSLPVTPGQPASISCRSSQSIVHSNGNTYFEWYLQKPGQSPQLLIYKVSNRFSGVPDRFSGSGSGTDFTLKISRVEAEDVGVYYCFQGSLVPWTFGQGTKVEIK
notes: human IgG1 or IgG4, kappa
B4: hu37D3-H9.v1 (antibody, V domains shown)
VH: B3 VH
VL: EDQLTQSPSSLSASVGDRVTITCRSSQSIVHSNGNTYFEWYQQKPGKSPKLLIYKVSNRFSGVPSRFSGSGSGTDFTLTISSLQPEDFATYYCFQGSLVPWTFGQGTKVEIK
notes: human IgG1 or IgG4, kappa
B5: hu37D3-H9.v5 N28D hIgG1 (antibody, name in Kabat numbering, V domains shown)
VH: B3 VH
VL: B3 VL with N33D
notes: human IgG1, kappa; also called hu37D3-H9.v5.3

Tests used:
[1] = biological target: T1, recombinant human Tau monomer, 2N4R isoform (amino acids 2-441) (human, UniProt P10636-8 2-441); experiment: SPR screen, hIgG captured, Tau monomer analyte; mean of n = 3
T1 construct: range 2-441; N-terminal His-tag removed with TEV protease; also called monomeric Tau
T1 sequence (P10636 other isoform, or with tags, fused parts or gaps limits assumed): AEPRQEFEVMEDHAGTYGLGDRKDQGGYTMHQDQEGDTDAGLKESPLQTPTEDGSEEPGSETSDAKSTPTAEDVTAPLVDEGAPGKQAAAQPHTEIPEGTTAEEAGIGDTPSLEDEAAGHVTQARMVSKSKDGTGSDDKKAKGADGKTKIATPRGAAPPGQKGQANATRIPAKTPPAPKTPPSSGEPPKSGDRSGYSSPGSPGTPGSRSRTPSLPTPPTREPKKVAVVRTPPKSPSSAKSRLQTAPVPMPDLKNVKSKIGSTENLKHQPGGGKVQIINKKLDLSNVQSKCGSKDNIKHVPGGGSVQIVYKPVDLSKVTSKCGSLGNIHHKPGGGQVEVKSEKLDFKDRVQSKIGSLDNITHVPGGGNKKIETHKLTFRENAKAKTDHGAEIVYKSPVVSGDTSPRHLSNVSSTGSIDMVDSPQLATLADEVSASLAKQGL
Description: Antibody 125B11-H3 was humanized onto VH3 and Vκ1 consensus frameworks. The heavy chain graft included murine residues at position 78 (Kabat numbering system). The Vκ1 graft included murine residues in framework positions 43 and 87. The light chain of 113F5-F7 was also humanized onto the Vκ1 framework, with additional murine residues at framework positions 43 and 87. Humanized variant heavy chains (125B11) and light chains (125B11 and 113F5-F7) were co-transfected in multiple combinations and purified in 96-well format as described above. Humanized variants were then screened for affinity for human Tau monomer using the Biacore human IgG capture kit, a Series S CM5 chip and a Biacore T200 instrument. Antibodies were diluted to 2 μg/ml and captured for 15 seconds at 10 μl/min. Association and dissociation of 0, 100 and 500 nM human Tau monomer in HBSP was monitored for 180s and 300s respectively at a flow rate of 40 μl/min. A 1:1 binding model was applied to the results (Table 9).
Variants hu125B11.v17 (HC3+LC1), hu125B11.v26 (HC4+LC2) and hu125B 11.v28 (HC4+LC4) were selected for high-resolution kinetic analysis based on the affinity screen (Table 10). Antibody 94B2-C1 was humanized onto VH1 and Vx2 frameworks. The heavy chain graft also included murine residues at position 28, 29, 67, 69, 71, and 73 (Kabat numbering system). […]

[2] = biological target: T2, AVI-tag biotinylated monomeric flTau (human, UniProt P10636-8 1-441, site-specific biotin on AVI-tag); experiment: capture ELISA, antibody on anti-IgG plate, biotinylated monoTau titrated, O.D.
T2 construct: also called monoTau; monomeric Tau
T2 sequence (P10636 other isoform, or with tags, fused parts or gaps limits assumed): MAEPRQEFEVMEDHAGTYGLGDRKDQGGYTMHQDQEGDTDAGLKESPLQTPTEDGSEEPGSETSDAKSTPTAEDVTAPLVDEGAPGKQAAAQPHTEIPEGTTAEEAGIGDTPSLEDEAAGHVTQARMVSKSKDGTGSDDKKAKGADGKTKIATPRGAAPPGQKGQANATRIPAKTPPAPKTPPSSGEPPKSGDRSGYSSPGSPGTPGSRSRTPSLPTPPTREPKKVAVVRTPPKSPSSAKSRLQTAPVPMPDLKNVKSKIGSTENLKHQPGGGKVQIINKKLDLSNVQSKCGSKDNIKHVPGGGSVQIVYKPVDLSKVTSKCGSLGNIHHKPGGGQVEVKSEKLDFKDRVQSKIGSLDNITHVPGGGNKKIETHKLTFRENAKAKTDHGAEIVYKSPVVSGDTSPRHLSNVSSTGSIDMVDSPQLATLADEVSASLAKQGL
Description: (§1) For the oligoTau and monoTau capture ELISAs, antibodies contained in serum-free sterile hybridoma supernatants were immobilized on an anti-IgG coated plate at 500-fold dilution, followed by the incubation of oligoTau or monoTau, both with site-specific biotinylation via an AVI-tag. The target incubations started at 5 μg/mL and then were diluted 8- or 16-fold. Streptavidin-HRP and ABTS substrate was used for signal quantitation in a plate reader (Tecan, Switzerland). Results are expressed as O.D.

[3] = biological target: T3, AVI-tag biotinylated oligomeric flTau (human, UniProt P10636-8 1-441, site-specific biotin on AVI-tag); experiment: capture ELISA, antibody on anti-IgG plate, biotinylated oligoTau titrated, O.D.
T3 construct: also called oligoTau; oligomeric Tau
Description: as §1

[4] = biological target: T4, full-length human Tau (flTau) (human, UniProt P10636-8 1-441); experiment: indirect ELISA, flTau coated, hybridoma supernatant diluted, O.D.
T4 construct: range 1-441; bought (SignalChem); also called human Tau-441
Description: Coating was done overnight in phosphate-buffered saline (PBS) at 4° C. Plates were washed thoroughly with 0.05% Tween-20/PBS and then blocked with 1% bovine serum albumin (BSA) in 0.05% Tween-20/PBS for 1 hr at 37° C. The antibody contained in the hybridoma supernatant was then added at the indicated dilutions, and incubated for 2 hrs at 37° C. after which the plates were washed as described previously.
For the indirect ELISAs, an AP-conjugated anti-mouse IgG secondary antibody (Jackson ImmunoResearch Laboratories, United Kingdom) was added at 1/6000 dilution in 0.05% Tween-20/PBS for 2 hr at 37° C. After the final wash, plates were incubated with p-nitrophenyl phosphate disodium hexahydrate (pNPP; Sigma-Aldrich, Switzerland) phosphatase substrate solution, and read at 405 nm using an ELISA plate reader (Tecan, Switzerland). Results are expressed as optical densities (O.D.).

[5] = biological target: T1, recombinant human Tau monomer, 2N4R …; experiment: SPR, captured IgG, Tau monomer analyte, 1:1 model; fit-quality column: Yes
Method in brief: (§2)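 Antibodies purified by protein A tip columns were normalized to 0.1 mg/ml; pre-stress kept ~4° C., post-stress held at 40° C. for two weeks. IgG (2 μg/ml) was captured on an anti-human IgG CM5 chip, Tau monomer injected at 0, 26.5 and 265 nM, 25° C., in HBSP; KD from 1:1 fit.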

[6] = biological target: T1, recombinant human Tau monomer, 2N4R …; experiment: SPR; Normalized Rmax post-stress (2 weeks 40 C) / pre-stress
Method in brief: as §2

[7] = biological target: T1, recombinant human Tau monomer, 2N4R …; experiment: SPR screen, hIgG captured, Tau monomer analyte
Description: (§3) Grafting onto consensus VH3, Vκ2 and Vκ1 frameworks was assessed. The heavy chain graft included murine residue at position 49 (Kabat numbering system). The Vκ2 graft included murine residues in framework positions 2 and 4. The Vκ1 graft included murine residues in framework positions 2, 4 and 43. Humanized variants were constructed by gene synthesis and subcloning into human IgG1 or IgG4 and Kappa chain mammalian expression vectors. Antibodies were expressed by co-transfection of the heavy and light chain plasmids into CHO cells and purified with affinity resin MabSelect Sure. Humanized variants were screened for affinity to human Tau monomer using the Biacore human IgG capture kit, a Series S CM5 chip and a Biacore T200 instrument. Antibodies were diluted to 2 μg/ml and captured for 15 seconds at 10 μl/min. Association and dissociation of 100, 33, 11 and 3.7 nM human Tau monomer in 10 mM HEPES pH7.4, 150 mM NaCl, 0.05% Tween 20 (running buffer, HBSP) was monitored for 180 seconds and 600 seconds respectively at a flow rate of 30 μl/min. A 1:1 binding model was applied to the results (Table 7).

[8] = biological target: T1, recombinant human Tau monomer, 2N4R …; experiment: SPR detailed kinetics, hIgG captured, Tau monomer analyte
Description: as §3, with “Antibodies were diluted to 2 μg/ml and captured for 15 seconds at 10 μl/min.” left out, “A 1:1 binding model was applied to the results (Table 7).” left out
Antibody variants hu37D3-H9.v1, hu37D3-H9.v2, hu37D3-H9.v5 and hu37D3-H9.v6 were characterized further by surface plasmon resonance with additional antibody concentrations and longer association/dissociation times. These variants were analyzed with a broader range of human Tau monomer concentrations (1.2, 3.7, 11.1, 11.1, 33.3, 100 nM) and increased association (300 seconds) and dissociation (1200 seconds) periods. […]

[9] = biological target: T1, recombinant human Tau monomer, 2N4R …; experiment: SPR, hIgG captured, Tau monomer analyte
Description: Affinity was assessed at 25° C. using a Biacore T200 instrument, the GE Biacore human IgG capture kit and a CM5 Series S chip. The hIgG were diluted to 2 μg/ml in 10 mM HEPES pH7.4, 150 mM NaCl, 0.05% Tween 20 (running buffer, HBSP) and captured at a flow rate of 10 μl/min for 22 seconds. […] Between cycles the surface was regenerated using a 30 second injection of 3M Magnesium Chloride at 10 μl/min. A 1:1 binding model was fitted to the data and affinities for hu37D3-H9.v5 and hu37D3-H9.v5.3 (also referred to herein as hu37D3-H9.v5 N28D) calculated using kinetic analysis. Parameters used for the 1:1 fitting included the Instrument default of local fitting for the “RI” parameter.

Binder | Kd [5] | Stability Index [6] | Kd [7] | Kd [8] | other results
B1 | – | – | – | – | Kd [1]: 3.8 nM
B2 | – | – | – | – | binding result [2]: binds; binding result [3]: binds; binding result [4]: binds
B3 | 0.9 nM | 73% | 1.9 nM | 0.8 nM | –
B4 | – | – | 4.1 nM | 1.1 nM and 1 nM | –
B5 | 73.2 nM | 70% | – | – | Kd [9]: 160 nM; fold reduction in affinity against hu37D3-H9.v5 [9]: > 100 fold
